Drawing on paper PMC9529347, this text covers Kd for one substance.

Broadly, the Kd is a measure of binding affinity in units of concentration. Higher therefore signals lower affinity.

In this assay the target is SARS-CoV-1 RBD monomer (N321-P513) with C-terminal AVI-tag and 6xHIS-tag (SARS-CoV-1). Put plainly: SPR. On the technique in general: SPR reads the build-up and loss of mass on a sensor chip optically.

Sequence of soluble human ACE2, truncated ectodomain (S19-D615), C-terminal 6xHIS-tag (Q9BYF1 19-615): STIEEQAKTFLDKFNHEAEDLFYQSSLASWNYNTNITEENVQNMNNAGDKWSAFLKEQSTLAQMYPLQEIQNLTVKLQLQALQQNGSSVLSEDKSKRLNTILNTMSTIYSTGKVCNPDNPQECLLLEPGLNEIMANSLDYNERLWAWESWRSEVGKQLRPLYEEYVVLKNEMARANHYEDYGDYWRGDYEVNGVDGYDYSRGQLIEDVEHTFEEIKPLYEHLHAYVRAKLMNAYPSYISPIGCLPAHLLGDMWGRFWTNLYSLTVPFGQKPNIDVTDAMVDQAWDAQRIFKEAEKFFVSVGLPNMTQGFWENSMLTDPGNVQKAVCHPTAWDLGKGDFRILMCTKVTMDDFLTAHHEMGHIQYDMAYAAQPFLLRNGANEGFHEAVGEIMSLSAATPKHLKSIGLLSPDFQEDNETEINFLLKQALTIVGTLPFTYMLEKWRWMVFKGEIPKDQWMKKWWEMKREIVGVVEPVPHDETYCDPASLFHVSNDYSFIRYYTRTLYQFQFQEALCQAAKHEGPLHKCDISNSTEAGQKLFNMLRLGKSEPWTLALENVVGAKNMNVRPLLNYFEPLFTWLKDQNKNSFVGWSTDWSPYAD

As to “soluble human ACE2, truncated ectodomain (S19-D615), C-terminal 6xHIS-tag (from UniProt Q9BYF1 19-615) (receptor)”, the Kd came out at 253 nM.
